Results taken from US20260001937A1, “NOVEL RECOMBINANT FIBRINOGEN VARIANTS FOR FIBRIN SEALANTS FOR SURGICAL WOUND CARE” (Julius-Maximilians-Universität Würzburg, priority 2022, published 2026).

Columns and labels:
ExpiCHO-S cells = test: α-chain degradation of recombinant fibrinogen during CHO cell expression (SDS-PAGE, in-gel digest MS); type: cell-based, Chinese hamster; details: no protease inhibitor added
Experimental: Fibrinogen variants were expressed according to the user manual (Thermo Scientific, Waltham, USA). Briefly, ExpiCHO-S™ cells (Thermo Scientific, Waltham, USA) were cultured to a final density of 10×10^6 cells/mL. Plasmids encoding for the different fibrinogen variants (0.8 μg/mL of culture) as well as ExpiFectamine™ CHO (Thermo Scientific, Waltham, USA) were diluted in 5 mL of cold OptiPro™ medium (Thermo Scientific, Waltham, USA) and incubated for 5 min at RT. The ExpiFectamine™ CHO/DNA complex was transferred to the shaker flask and incubated at 37° C. and 8% CO2 and 130 rpm. After 24 h of incubation, ExpiFectamine™ CHO Enhancer and ExpiFectamine™ CHO Feed (Thermo Scientific, Waltham, USA) were added to the culture flask. The culture flasks were transferred to an incubator at 32° C. and 8% CO2 with shaking at 130 rpm. This step was repeated after 4 days of incubation. After another incubation step of up to 7 days at 32° C. and 8% CO2 and 130 rpm cells were harvested and centrifuged at 3000 rpm for 15 minutes. […]
Purified proteins and conjugates were analyzed using Tris-glycine SDS-PAGE either with or without the addition of β-mercaptoethanol as described before.58 Gels were stained with Coomassie Brilliant Blue G250 and documented using FluorChem FC2 imaging system (Protein Simple, Santa Clara, USA). […]

FXIIIa = target: T1, FXIIIa (Homo sapiens, UniProt P00488); test: FXIIIa-catalyzed cross-linking of fibrin (SDS-PAGE, reducing); type: biochemical
T1 construct: purchased CSL Behring Fibrogammin
T1 sequence (P00488 39-732 limits assumed): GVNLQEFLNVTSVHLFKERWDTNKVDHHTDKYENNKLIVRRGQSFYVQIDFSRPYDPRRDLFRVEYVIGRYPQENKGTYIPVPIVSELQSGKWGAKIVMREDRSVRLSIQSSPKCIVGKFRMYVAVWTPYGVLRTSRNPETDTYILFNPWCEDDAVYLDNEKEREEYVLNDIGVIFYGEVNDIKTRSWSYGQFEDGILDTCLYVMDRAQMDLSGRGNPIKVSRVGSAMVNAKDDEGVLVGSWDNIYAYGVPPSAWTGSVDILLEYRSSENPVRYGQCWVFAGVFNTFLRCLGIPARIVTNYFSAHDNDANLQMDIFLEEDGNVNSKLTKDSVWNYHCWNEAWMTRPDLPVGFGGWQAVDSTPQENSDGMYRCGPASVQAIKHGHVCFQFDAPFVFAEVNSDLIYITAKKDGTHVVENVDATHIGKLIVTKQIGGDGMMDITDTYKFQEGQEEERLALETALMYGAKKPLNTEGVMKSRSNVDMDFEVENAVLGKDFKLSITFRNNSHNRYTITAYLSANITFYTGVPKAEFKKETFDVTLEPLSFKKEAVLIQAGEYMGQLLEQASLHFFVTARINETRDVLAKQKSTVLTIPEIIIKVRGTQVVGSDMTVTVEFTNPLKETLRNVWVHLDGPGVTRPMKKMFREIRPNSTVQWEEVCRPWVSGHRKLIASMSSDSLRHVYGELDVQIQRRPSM
Experimental: FIG. 27: FXIIIa-catalyzed cross-linking of fibrinogen. Crosslinking of His-rFbgH433R435 by rFXIIIa was examined with SDS-PAGE, under reducing conditions. Fibrinogen (0.1 mg/mL) was mixed with FXIIIa (0.5 mU/mL) and thrombin (0.05 U/mL), and the reaction was incubated for the specified time at 37° C. The reduced fibrin chains (α, β, γ, cross-linked γ-γ dimer) are indicated on the right side of the gel.
To examine cross-linking of fibrin, fibrinogen (0.1 mg/mL) was incubated at 37° C. with FXIIIa ([…]) and human-thrombin (final concentration, 0.05 U/mL) in Tris-buffer and CaCl2 (10 mM). The reactions were stopped at various times by addition of an equal volume of sodium dodecyl sulfate (SDS) sample buffer with 2-mercaptoethanol and incubation (5 min) at 90° C. Samples were separated on SDS-polyacrylamide gel electrophoresis (SDS-PAGE) and stained with Coomassie brilliant blue.

thrombin = thrombin (Homo sapiens, UniProt P00734); test: Thrombin-catalyzed fibrin polymerization, turbidity at 350 nm; type: biochemical; details: fibrinogen 0.1 mg/mL, thrombin 0.05 U/mL
Experimental: FIG. 26: Thrombin-catalyzed fibrin polymerization. Polymerization of fibrinogen (0.1 mg/mL) was initiated by the addition of thrombin (0.05 U/mL), factor XIIIa (Fibrogammin®, CSL Behring) (50 mU/ml) as well as CaCl2 (10 mM). The change in turbidity at 350 nm was followed with time (0-3600 sec). Representative polymerization curves of plasma Fibrinogen (square) and His-rFbgH433R435 (triangle).
Turbidity experiments were conducted on a Tecan Infinite M Plex plate reader at 37° C. A 96-well plate with a final volume of 100 μl per well was used and was experiments were performed in triplicate. The Thrombin-catalyzed fibrin polymerization of fibrinogen (0.1 mg/mL) was initiated by the addition of thrombin (0.05 U/mL), factor Xllla (Fibrogammin®, CSL Behring; 50 mU/ml) as well as CaCl2 (10 mM). The change in turbidity at 350 nm was followed over time (0-3600 sec).

formation of functional fibrin gels (FXIIIa; conclusion from polymerization and cross-linking experiments): forms functional fibrin gels | incubation time after which cross-linked γ-γ-dimer bands were visible (FXIIIa; fibrinogen 0.1 mg/mL, FXIIIa 0.5 U/mL, thrombin 0.05 U/mL, CaCl2 10 mM, 37° C.): 5 min | thrombin-induced fibrin polymerization compared with control (pFbg) (thrombin; factor XIIIa 50 mU/ml, CaCl2 10 mM, 37° C., 0-3600 sec): slightly reduced | absorption in fibrin polymerization compared with control (pFbg) (thrombin; turbidity 350 nm): comparable | lag time of fibrin polymerization compared with control (pFbg) (thrombin; turbidity 350 nm): similar
Substance: His-rFbgH433R435: Aα, Bβ- and γ-chain fibrinogen; α-chain L433H, T435R (SEQ ID 79), γ-chain K88H, K111H, K382H, K399H (SEQ ID 80)
α-chain degradation during CHO cell protein expression (ExpiCHO-S cells): not detectable
